Results published in PMC10079538, “Unusual PDGFRB fusion reveals novel mechanism of kinase activation in Ph-like B-ALL” (Leukemia, 2023).

Biological target: the molecule itself
Test: SEC; elution of the recombinant protein purified from insect cells; molecular weight from the elution

B1: recombinant truncated PDGFRB (PDGFRB^584-1106) (domain or fragment, human, UniProt P09619 584-1106, looked up)
chain: PMQLPYDSTWELPRDQLVLGRTLGSGAFGQVVEATAHGLSHSQATMKVAVKMLKSTARSSEKQALMSELKIMSHLGPHLNVVNLLGACTKGGPIYIITEYCRYGDLVDYLHRNKHTFLQHHSDKRRPPSAELYSNALPVGLPLPSHVSLTGESDGGYMDMSKDESVDYVPMLDMKGDVKYADIESSNYMAPYDNYVPSAPERTCRATLINESPVLSYMDLVGFSYQVANGMEFLASKNCVHRDLAARNVLICEGKLVKICDFGLARDIMRDSNYISKGSTFLPLKWMAPESIFNSLYTTLSDVWSFGILLWEIFTLGGTPYPELPMNEQFYNAIKRGYRMAQPAHASDEIYEIMQKCWEEKFEIRPPFSQLVLLLERLLGEGYKKKYQQVDEEFLRSDHPAILRSQARLPGFHGLRSPLDTSSVLYTAVQPNEGDNDYIIPLPDPKPEVADEGPLEGSPSLASSTLNEVNTSSTISCDSPLEPQDEPEPEPQLELQVEPEPELEQLPDSGCPAPRAEAEDSFL
notes: PDGFRB, human, residues 584-1106; truncated form encoded by the CD74^intr::PDGFRB fusion, lacks the juxtamembrane region; methods are in the supplementary file; also called truncated PDGFRB^584-1106; source: insect cells, expressed and purified
  stoichiometry N: 2
